Assay results published in patent US20100304465A1.

Key:
Experiment in all cases: cell-based or functional assay
[1] = molecular target: delta-plasmin (human (recombinant deletion mutant of human plasminogen, made in E. coli)) (UniProt P00747)
micro-plasmin = micro-plasmin (UniProt P00747)
mini-plasmin (human) = mini-plasmin (human) (UniProt P00747)
plasmin (human) = plasmin (human) (UniProt P00747)

Binder	fold change of inhibition rate against micro-plasmin or mini-plasmin [1] [fold]	inhibition rate (22° C., PBS, pH 7.4; residual S-2251 activity) [1] [M^-1s^-1]	inhibition rate (22° C., PBS, pH 7.4; residual S-2251 activity) (micro-plasmin) [M^-1s^-1]	inhibition rate (second separate experiment; residual S-2251 activity) (micro-plasmin) [M⁻¹ s⁻¹]	inhibition rate (22° C., PBS, pH 7.4; residual S-2251 activity) (mini-plasmin (human)) [M^-1s^-1]	inhibition rate (22° C., PBS, pH 7.4) [1] [M^-1s^-1]	inhibition rate (22° C., PBS, pH 7.4) (micro-plasmin) [M^-1s^-1]	inhibition rate (22° C., PBS, pH 7.4) (mini-plasmin (human)) [M^-1s^-1]	inhibition rate (22° C., PBS, pH 7.4) (plasmin (human)) [M^-1s^-1]
α2-antiplasmin (protein, UniProt P08697 40-491, looked up) NQEQVSPLTLLKLGNQEPGGQTALKSPPGVCSRDPTPEQTHRLARAMMAFTADLFSLVAQTSTCPNLILSPLSVALALSHLALGAQNHTLQRLQQVLHAGSGPCLPHLLSRLCQDLGPGAFRLAARMYLQKGFPIKEDFLEQSEQLFGAKPVSLTGKQEDDLANINQWVKEATEGKIQEFLSGLPEDTVLLLLNAIHFQGFWRNKFDPSLTQRDSFHLDEQFTVPVEMMQARTYPLRWFLLEQPEIQVAHFPFKNNMSFVVLVPTHFEWNVSQVLANLSWDTLHPPLVWERPTKVRLPKLYLKHQMDLVATLSQLGLQELFQAPDLRGISEQSLVVSGVQHQSTLELSEVGVEAAAATSIAMSRMSLSSFSVNRPFLFFIFEDTTGLPLFVGSVRNPNPSAPRELKEQQDSPGNKDFLQSLKGFPRGDKLFGPDLKLVPPMEEDYPQFGSPK	40	1.1e+07	180000	310000	240000	–	–	–	–
α2-macroglobulin (protein, UniProt P01023 24-1474, looked up) SVSGKPQYMVLVPSLLHTETTEKGCVLLSYLNETVTVSASLESVRGNRSLFTDLEAENDVLHCVAFAVPKSSSNEEVMFLTVQVKGPTQEFKKRTTVMVKNEDSLVFVQTDKSIYKPGQTVKFRVVSMDENFHPLNELIPLVYIQDPKGNRIAQWQSFQLEGGLKQFSFPLSSEPFQGSYKVVVQKKSGGRTEHPFTVEEFVLPKFEVQVTVPKIITILEEEMNVSVCGLYTYGKPVPGHVTVSICRKYSDASDCHGEDSQAFCEKFSGQLNSHGCFYQQVKTKVFQLKRKEYEMKLHTEAQIQEEGTVVELTGRQSSEITRTITKLSFVKVDSHFRQGIPFFGQVRLVDGKGVPIPNKVIFIRGNEANYYSNATTDEHGLVQFSINTTNVMGTSLTVRVNYKDRSPCYGYQWVSEEHEEAHHTAYLVFSPSKSFVHLEPMSHELPCGHTQTVQAHYILNGGTLLGLKKLSFYYLIMAKGGIVRTGTHGLLVKQEDMKGHFSISIPVKSDIAPVARLLIYAVLPTGDVIGDSAKYDVENCLANKVDLSFSPSQSLPASHAHLRVTAAPQSVCALRAVDQSVLLMKPDAELSASSVYNLLPEKDLTGFPGPLNDQDNEDCINRHNVYINGITYTPVSSTNEKDMYSFLEDMGLKAFTNSKIRKPKMCPQLQQYEMHGPEGLRVGFYESDVMGRGHARLVHVEEPHTETVRKYFPETWIWDLVVVNSAGVAEVGVTVPDTITEWKAGAFCLSEDAGLGISSTASLRAFQPFFVELTMPYSVIRGEAFTLKATVLNYLPKCIRVSVQLEASPAFLAVPVEKEQAPHCICANGRQTVSWAVTPKSLGNVNFTVSAEALESQELCGTEVPSVPEHGRKDTVIKPLLVEPEGLEKETTFNSLLCPSGGEVSEELSLKLPPNVVEESARASVSVLGDILGSAMQNTQNLLQMPYGCGEQNMVLFAPNIYVLDYLNETQQLTPEIKSKAIGYLNTGYQRQLNYKHYDGSYSTFGERYGRNQGNTWLTAFVLKTFAQARAYIFIDEAHITQALIWLSQRQKDNGCFRSSGSLLNNAIKGGVEDEVTLSAYITIALLEIPLTVTHPVVRNALFCLESAWKTAQEGDHGSHVYTKALLAYAFALAGNQDKRKEVLKSLNEEAVKKDNSVHWERPQKPKAPVGHFYEPQAPSAEVEMTSYVLLAYLTAQPAPTSEDLTSATNIVKWITKQQNAQGGFSSTQDTVVALHALSKYGAATFTRTGKAAQVTIQSSGTFSSKFQVDNNNRLLLQQVSLPELPGEYSMKVTGEGCVYLQTSLKYNILPEKEEFPFALGVQTLPQTCDEPKAHTSFQISLSVSYTGSRSASNMAIVDVKMVSGFIPLKPTVKMLERSNHVSRTEVSSNHVLIYLDKVSNQTLSLFFTVLQDVPVRDLKPAIVKVYDYYETDEFAIAEYNAPCSKDLGNA	–	–	–	–	–	760000	780000	750000	650000
